First the molecules themselves.
B1: GST-Dyn1xA-PRR (full-length proline-rich region of Dynamin 1 splice variant xA, 746-864) [rat] / Endophilin A1 (endogenous, rat brain synaptosomes) [rat (endogenous in rat brain synaptosomes)] (parent complex)
chain 1: NTTTVSTPMPPPVDDSWLQVQSVPAGRRSPTSSPTPQRRAPAVPPARPGSRGPAPGPPPAGSALGGAPPVPSRPGASPDPFGPPPQVPSRPNRAPPGVPSRSGQASPSRPESPRPPFDL
chain 2: MSVAGLKKQFHKATQKVSEKVGGAEGTKLDDDFKEMERKVDVTSRAVMEIMTKTIEYLQPNPASRAKLSMINTMSKIRGQEKGPGYPQAEALLAEAMLKFGRELGDDCNFGPALGEVGEAMRELSEVKDSLDMEVKQNFIDPLQNLHDKDLREIQHHLKKLEGRRLDFDYKKKRQGKIPDEELRQALEKFDESKEIAESSMFNLLEMDIEQVSQLSALVQAQLEYHKQAVQILQQVTVRLEERIRQASSQPRREYQPKPRMSLEFATGDGTQPNGGLSHTGTPKPAGVQMDQPCCRALYDFEPENEGELGFKEGDIITLTNQIDENWYEGMLHGQSGFFPINYVEILVALPH
B2: GST-Dyn1xA-PRR (full-length proline-rich region of Dynamin 1 splice variant xA, 746-864) [rat] / Amphiphysin 1 (endogenous, rat brain synaptosomes) [rat (endogenous in rat brain synaptosomes)] (parent complex)
chain 1: B1 chain 1
chain 2: MADIKTGIFAKNVQKRLNRAQEKVLQKLGKADETKDEQFEEYVQNFKRQEAEGTRLQRELRGYLAAIKGMQEASMKLTESLHEVYEPDWYGREDVKMVGEKCDVLWEDFHQKLVDGSLLTLDTYLGQFPDIKNRIAKRSRKLVDYDSARHHLEALQSSKRKDESRISKAEEEFQKAQKVFEEFNVDLQEELPSLWSRRVGFYVNTFKNVSSLEAKFHKEIAVLCHKLYEVMTKLGDQHADKAFSIQGAPSDSGPLRIAKTPSPPEEASPLPSPTASPNHTLAPASPAPVRPRSPSQTRKGPPVPPLPKVTPTKELQQENIINFFEDNFVPEINVTTPSQNEVLEVKKEETLLDLDFDPFKPDVTPAGSAAATHSPMSQTLPWDLWTTSTDLVQPASGGSFNDFTQPQDTSLFTMQTDQNMAETEQALPTEPQAEEPPTTAAAPTAGLDLGLEMEEPKEEAAIPPGTDAGETVGTEGSTGEEAEAEKAALPAGEGESPEGAKIDVESTELASSESPQAAELEAGAPQEKVIPSVVIEPASNHEGEEHQETTTGTETREATEDVAPQGPAGEKQELATEPTPLDSQAATPAPAGAVDASLSAGDAAQELPPGFLYKVETLHDFEAANSDELTLQRGDVVLVVPSDSEADQDAGWLVGVKESDWLQYRDLATYKGLFPENFTRHLE

Variants of B1 are the subject of the first test. Nature of the test: GST pull-down, densitometry of western blots; n=2; parent: 100; read off a plot. In general terms: In western blotting, separated proteins are transferred to a membrane and probed.
Take chain 1 S106E, chain 1 S112E: the percent of parent is about 53%.

For the variant chain 1 S29E, chain 1 S33E, the percent of parent was about 37%.

Variants of B2 are the subject of a further test. The description is as above.
Turning to chain 1 NTTTVSTPMPPPVDDSWLQVQSVPAGRREPTSEPTPQRRAPAVPPARPGSRGPAPGPPPAGSALGGAPPVPSRPGASPDPFGPPPQVPSRPNRAPPGVPSRSGQASPSRPESPRPPFDL, the percent of parent was about 98%.

As for chain 1 NTTTVSTPMPPPVDDSWLQVQSVPAGRRSPTSSPTPQRRAPAVPPARPGSRGPAPGPPPAGSALGGAPPVPSRPGASPDPFGPPPQVPSRPNRAPPGVPSRSGQAEPSRPEEPRPPFDL, the percent of parent was about 90%.

The values are drawn from doi:10.1101/2023.09.21.558797 (2023).
